Results: the DeepSol protein solubility set

Test: soluble on expression in E. coli; label from the status in PepcDB or PDB records

Which “soluble on expression in E. coli” value does the source give for “MTKLGLGLSGDLGAQEIVRMLDLQPHPEGGWYRQTFQDAPGPDGRAASTCIYYLLEAEQMSAWHRVDAVETWHYYAGAPISLTLSPPDGKGASAYVLGPDLRAGCRPQVIVPTLWWQTAVSLGAWTLVGCTVAPGFRFEGFEMAPPDWTPSTGLEHHHHHH” here?
The value was “soluble”.

Which “soluble on expression in E. coli” value does the source give for “MQTEHVILLNAQGVPTGTLEKYAAHTADTRLHLAFSSWLFNAKGQLLVTRRALSKKAWPGVWTNSVCGHPQLGESNEDAVIRRCRYELGVEITPPESIYPDFRARATDPSGIVENEVCPVFAARTTSALQINDDEVMDYQWCDLADVLHGIDATPWAFSPWMVMQATNREARKRLSAFTQLKLEHHHHHH” here?
Its value is “soluble”.

For “MGSDKIHHHHHHMRADLTPFLNDRLDWNLLRTYLVIMQERSVSRAAARLHVTQPAVSQALRRLEDTLERKLIERRGAHFAPTPAGEAVYRIASDIYGGVSRLETELDDSTADLTGSIRLLTVSRIESPVYDAFLADFHRAYPRIDLQIEVMRSSDILSSLLQKTATAGLGLCRTPHDKLEMRCFLRQRYAIYCGRHHRLFGQTQLRMEDLLAENFVSFTSDQIGDSLSPLTVFRDQKGFTGRIVASSPSLEEVRRLIFAGYGIGCLPEHIVRDDIAQQRLWRLPPDDGLVDVDVFLLWHRDRKMNAAEHAFLDAMERCMQQHSLAERLGM”, which “soluble on expression in E. coli” value is on record?
The value was “not soluble”.

Which “soluble on expression in E. coli” value does the source give for “MGSDKIHHHHHHMISNLYFVKLKNIGEHEFIKRYIKNYMDIKLLDDVFINEKRGYKVDGFKLSYAFPFMSLYDIGWKAISASTSDIIAKGVKPEFYLISLGLPPDFDVNKAEELIGGISDAIHYYGGRYVGGDLNDSDSNGWVDVFVEGEVLCDISDKVIDDGDLLVIGDYIGYTTNVFISYINNFNIQILPESLLKVKHPIVKKSLLFFMKKYCKFIKYSTDISDGLMVSLYKIVDNFNLGINITEIPIDKNVFNSLKLRLNLTELDILKYAGEEFLPLLIIDKNSPVKEMLAELQYLAFNPLIIGQVIHENRLITYKNTVIKNTGWDNFIGWY” here?
The value was “not soluble”.

Which “soluble on expression in E. coli” value does the source give for “MAVKINDLTLPKEKLENEYQVVQVSLWQKDGEALGWTYECVLPKLRFEKISVKVKSEAPVITKETLDEKGMAIVRFDNLMITPWGRVNGQFVSYGLTATAYKATLVPNK” here?
The value was “not soluble”.

With “MRTMKAPSMGATVEVLSFLQPVTRELVHRSSIAEVFVTDGVRTGENAFSVGAQWPRDHALYHPDENGLNDPLLFAETLRQAHFYGAHTYFGVPVGSRFIGQDVSFEITDPTALRVGAAPLAVVLNGTWTEERDRRGRPAGARLDVTLTVDGRPCGRGHTRGLMLDDRRYRLLRGRPAASGEVSPPRPAPDARIARPNRVGRLRWKDCVLERDRPDQDWRLRVDRDHAVLFDHPTDHVPLMVMLEGFRQLGHLTVHEASRRTLGDRAFALAGLSLDCAAFGELGETILLSLEKGPSEGVPTEECALRVAAHQGERLLARADMTWKCVGSRAPWSRFASWLEHHHHHH” as the sequence, how does the “soluble on expression in E. coli” value read?
Its value is “not soluble”.

For “MGHHHHHHSHMSVAGGEIRGDTGGEDTAAPGRFSFSPEPTLEDIRRLHAEFAAERDWEQFHQPRNLLLALVGEVGELAELFQWKTDGEPGPQGWSPRERAALQEELSDVLIYLVALAARCRVDLPLAVLSKMDINRRRYPAHLARSSSRKYTELPHGAISEDQAVGPADIPCDSTGQTST”, which “soluble on expression in E. coli” value is on record?
Its value is “soluble”.

Which “soluble on expression in E. coli” value does the source give for “GYWGCKDLNSVFVYANQAYGELIGLKRAEDCIGRTDFEMPSPTAACAAEFQQQDRYVIETGHSVKVLDIHPYPDGHWHAHIFTKTPWRDSQGKIQGTIFFGQDLT” here?
The value was “not soluble”.

Which “soluble on expression in E. coli” value does the source give for “SRKRLSAPELRLSLTKGPGNDGASPTQSAPSSPDGSSDLEIDELETPSDSEQLDSGHEFEWEDELPRAEGLGTSETAERLGRGCMWDVTGEDGHHWRVFRMGPREQRVDMTVIEPYKKVLSHGGYHGDGLNAVILFASCYLPRSSIPNYTYVMEHLFRYMVGTLELLVAENYLLVHLSGGTSRAQVPPLSWIRQCYRTLDRRLRKNLRALVVVHATWYVKAFLALLRPFISSKFTRKIRFLDSLGELAQLISLDQVHIPEAVRQLDRDLHGSGGT” here?
The value was “soluble”.

Which “soluble on expression in E. coli” value does the source give for “MGSDKIHHHHHHMYTLNILKDSTAVMYEKMTFPAFQYVLQEINSKESLIAIAASYQEEPVGLVLAEIRTYNQSAEVLSLFVEPSHRCAGIGTNLLNRLETELTYRRCKKVELVYMTGKSTTPALENLLHKCGWTSPQPRMLVCKGEMEKGIQAPWLKQYSQLPAAYTIFPWREITTQERQAIERQQATQPWIPEDLIPFKYDKQIEPLNSLGLRYQGQVVGWLISHRIFPDTIRYTCAFCRPDIQKKGRMITLFYEAAKLQLNAKIPHFIWTTPMNHQSMVAFVKYRCLPYLTSIQETRIISKLLLG” here?
The value was “not soluble”.

Which “soluble on expression in E. coli” value does the source give for “ATATAYVRSCDGASPPTPPGCGLKLVVDLTLDDSILTGSVLETEVMVTHALHESLFPRDAASDAAGTAATSLQVSLPPITVAMRRGAVQMRYGLTYLRTFPAALRDSVRVLKTAMSCDDGVTRCPSYMSMTGTLVSAPLGLCCLCTSVECALTSDLCNASMRAHFCFRTGAAGITCVQSEGITYHGWAVGSSSPYYMMHLSASGRGIAPTTLQLTTDAPEVQKGASALQILRASGVLPGESNPTVDISGRVLFVPSAEHSSASRSISTGPVRDDDPAEWLLLPAPLVSVSGNDCDKVGISPDYFYSLSSTKQCNAQKGTCVRHQLADYRAADLEQIAQGVGGRYIAASLGTFTRQAMREQEFLLDAVERTGGAMLRWTVNADGLVFQPLPVHGVLDAIKFDSSTGILYVTVRNNNTYGGLYYVAVGQCRGARASNCDSDGVTHECGRTALVAGANTSSLLQFSMVSDLPEEVGSTASCTVVFRDAAAALLASANISWTVEHTTTTPAPNAPKAEQCRRCAFRDLRCLFSTV” here?
The value was “not soluble”.

For “MPVVERTTFLAGYSPQQVLDFCLEGANFPKIFPERVTPLGGLDINDLRISVGRQFSFLHWMFGVIPAKWTVVIREVGDRHFVDEMLKGPLRAFRHEHRVEAAEGGTLYTDRVTYRAIGGAPLEWLMVNAYMARIFDARHRNMLRLLSLEHHHHHH”, which “soluble on expression in E. coli” value is on record?
The value was “soluble”.

Which “soluble on expression in E. coli” value does the source give for “MPKYYCDYCDTFLTHDSPSVRKTHNGGRKHKDNVRMFYQKWMEDQAQKLVDQTARAFATNRMQGAVPRTTMGMAPVPPVGHHPMMGGPPGMPMMAPRPFPGPGVGFPGAPGMPPFPGGPMGMAGPPGMPPMMPRPPQQFRPM” here?
The value was “not soluble”.

Which “soluble on expression in E. coli” value does the source give for “RTNRTGMATAIPDSLHKIFYTAAGRRVEDAGGILPDIEVKQDTAATLLYYMAINNDVFDFVTGYVLKHKTIAKPEDFSITNEDYAAFCKMMEEKKFDYDRQSGKMLDKLEELAKIEGYLPEANSELKALREKLKPNLSRDLLRFKKEITNYLNNEIVTRYYYERGSIRQSLPEDKVVKEAIKLLKDHPEQIRQILAAPKAENKG” here?
The value was “not soluble”.

For “MSGGPVKTPFLSFIIPAYNEEQRLPSYLERVIGFFAGQSYSFEIVVVDDGSSDGTAALVKALMAQHSCLRLEALDRNRGKGFAVKTGMSAAKGQLRVFADADGATPVEEIRRLLDAREQGADIAIGSRAMRSDECIVQGRVHRKIMGTVFNGLIRALAVRGIHDSQCGFKLFTASAAEDIFPRQRITGFGFDVELLFLARRLGYVVVEVPVNWSDVEGTKVRLVRDSFRMLGEVLRIRFTNLTGGYGDIPGKTLEHHHHHH”, which “soluble on expression in E. coli” value is on record?
Its value is “not soluble”.

Which “soluble on expression in E. coli” value does the source give for “MREPGFWHRPPSLVSRLLLPIAAIYGNIAAARMQKAGTTVGVPVLCVGNYHMGGAGKTPTTLALVALLREFGETPVVLSRGYGGRLQGPVQVDPSRHSAADIGDEPLMMARRVPVVVARDRTDGAALACALGATVILMDDGFQNPALTKDASLIVVDSHRSIGNGSVFPAGPLRAPLPLQVARTDALVVVGDGTAADGLAQQITTKGGVVLRARLVPEPASVEALRGRRVLAFAGIGDPARFVATLRDSGVEVVEQRAFADHHPFTAEELAELAAAAKRDGLTLVTTEKDLARIGGAQQALGVEIVPFAVTLAFGDEAKLRLFLLDRLNGARAAKLAGRRMAGDPLEHHHHHH” here?
Its value is “not soluble”.

With “MGSDKIHHHHHHAFTTGENDPFIKSPTVAKLTNTPNGPLISCDLKALKDTVNFPLSQLTEELQIVKLDNRDEALIGGWIRTTVGEKYILVSNNKQTPYKLFDRTGKFITNIGSYGQGPNEYLNTYAEQLDEANNRIYILPWQSSKILVFDLKGNALDPIPLCLRVPKGKFRVNTAKSEVTVTVLPFPKWPAVVWTQDLKGKRKNFVAPGSLAMPQDFSNEVSMGNNTAAYDVMLMKIMPQPSVDTLYHYNAASNKLEGRFTVKYPSNDKIPWHAYYEIPKYFIGDVSFPIQIDESTFSGSKPAYYMVDKKTLHGNYVRLYNDFISTPSQTIYPSFNNGYYVTNMEPMALKEILEKEVNKKGLTADKKKKVQNLIKTLNDNDNNIVMFAKLKQ” as the sequence, how does the “soluble on expression in E. coli” value read?
The value was “not soluble”.

Which “soluble on expression in E. coli” value does the source give for “TVSQLRSRITRFALAGRGMRETVTWSFISEKQALAFGGGQAQLKLVNPISADMSVMRPSLLPGLLVAAQRNADRGFPDFALFEVSNIYEDDTPDKQHRVAGGIRRGTEQFGGAGRFWNGNARAVDVFDAKADALAVLEACGLESGKVQIEVGAPDWYHPGRSGVIKLGSKIILGFFGVFHPATLEKLDISGPLCGFEIFL” here?
Its value is “not soluble”.

Which “soluble on expression in E. coli” value does the source give for “DKIGTAVLQGVMQGRRAKDVAKEIEQITDATASRATFIARDQTSKMNAAFNEIRQVGLGIESYTWQTSGDERVREDHAAHDGTVFRWSDPPATGHPGQDYNCRCVAIPNVTLEGP” here?
The value was “not soluble”.

Which “soluble on expression in E. coli” value does the source give for “MNYHQYYPIDVVNGPGTRCTLFVSGCVHQCRGCYNQSTQRLDSGVLFTQEAEDKIINDLNDTRIKRRGLSLSGGDPLHPANVPHILKIVKRVREECPGKDIWVWTGYTLAELDDAQREVVQYIDVLIDGKFEQDKKDLNLEWRGSSNQIIHRFTDILEHHHHHH” here?
The value was “not soluble”.

For “MGSDKIHHHHHHMILVTGANGLVGSFLCNELAGKGYRVKALVREKSDTSLLKAVAGSIELVYGDITDAGSLVDAMEDVMCVVHTAAVISFWNKKNKEMYQTNVVGTRNVVDVALEKGVKKMIHISSIAAIGRKATDTRIDEKNNWEESAVNTAYAVTKHQAELEIFRAVEEGLHAVIINPSVILGPGLKGTSSVRLFEYVQQKGKFYTDGDLNYVDVRDVVESIEYFISHETPAGERYILNGGTVSFKTFFEKIAEMLHTNPPSVKASDWMKQIVWRVEAIKAFITGKEPLITKSTARTATNKFEYSADKIMQLSQRSFRPLQDTIYWTCKQLF”, which “soluble on expression in E. coli” value is on record?
Its value is “not soluble”.

Which “soluble on expression in E. coli” value does the source give for “ESRSQISRRNQDMLLSVLDLEKVSVNDIMVPRNEIVGIDINDDWKSIVRQLTHSPHGRIVLYRDSLDDAISMLRVREAYRLMTEKKEFTKEIMLRAADEIYFVPEGTPLSTQLVKFQRNKKKVGLVVDEYGDIQGLVTVEDILEEIVGDFTTSMSPTLAEEVTPLNDGTVIIDGSANVREINKAFNWHLPEDEARTVNGII” here?
The value was “soluble”.

For “MGNSSSLMLRDEEIEEIMSETEFNRNQIVRLYSRFLSLDKKGQGFLSRDDFLNVPELAVNPLGDRIVDAFFTLASSNGDNEEQQLNFRQFVRILAHFQPISRVKKNALNSRKDKLLFAFKMYDLNKNDYITREEFKVILNSMVGANITSDQLDKIADRTIEEADADRDGKISFDEFCRAMEKTDIEEKMSIRFLN”, which “soluble on expression in E. coli” value is on record?
The value was “soluble”.

Which “soluble on expression in E. coli” value does the source give for “TRGHGLFRITLVERDGPVGAGIAYATREAEHLLNTRVHNMSAFPDRPDHFRQWLAAEPEGRFSTGDSFVPRGLYRRYLEEILAPWRAGAQLTCVGGECLRIEEVGRGVIAHFSDGSVRLADVAILATGHPRPDPAEDRLLQDPWRAADVPPDARVVLLGSGLTMIDKVLTLLANGHRGEI” here?
Its value is “not soluble”.

Which “soluble on expression in E. coli” value does the source give for “MGSDKIHHHHHHMKAIVFGGSGFIGSHIVNSLEADSVAYYSLEKGTNVKRNDAVWIQGDVTDYSKVEASMAGYDTVFFAVEDWAADEARNREILLNGIKNVVSAIKKASTDQKLVSFSMINQPSYPLEYFRTKRLVEDNTRVLKNGLVVRLSIVFGDGDHFTDRFVKLAEQVSHLPEEGNLAPVYVGDVVTVVNSIIKREGVYDICSNDNLPLIRIINYIRKNIGKKEIGSVKLEKGLSMLTETGLFSRYEAELMFQDYYRETSILDRYVKNPTSYLDFLRSILVEHTT” here?
The value was “not soluble”.
